“And” between values parts separate entries of the source, which are not always exact repeats. Identical values can stand only once.
Key:
[1] = biological target: Hag (ex), recombinant Hag with the flg22 region replaced by flg22 (Ps) (Bacillus subtilis BSn5 | Pseudomonas syringae); test: MST; protein labelled with Cy5-NHS ester at fixed concentration, serial 2x dilutions of unlabelled subtilomycin (1 mM set as highest; 500 μM highest final in the legend); PBS pH 8.0; MST power 20%, LED power 60%; Monolith NT.115; constants called ambiguous, based on total subtilomycin concentration
[2] = biological target: lantibiotic subtilomycin (Bacillus subtilis BSn5); test: tricine-SDS-PAGE; purified subtilomycin on 16% tricine-SDS-PAGE; bands of around 9, 12 and 15 kDa; oligomers of subtilomycin

lantibiotic subtilomycin (peptide) was tested. Which Kd [1] did it give?
Its Kd is 80.6 µM.

And the stoichiometry N [2]?
The stoichiometry N was 3 and 4 and 5.

From PMC6787100
